As a reminder, the stoichiometry N is the number of molecules, sites or subunits per partner or assembly.

This test addresses hemocyanin from Fissurella latimarginata (Fissurella latimarginata). The test can be described thus: negative-stain transmission electron microscopy; purified FLH 100 µg/ml on parlodion-coated copper grid, stained with 1-2% aqueous uranyl acetate, 80 kV; quaternary structure of the assembled protein.

Take “hemocyanin from Fissurella latimarginata (natural protein)”: the stoichiometry N is 20 subunits.
